# Experimental data reported in PMC12412787.
# T1: Pyl1p (Yarrowia lipolytica, UniProt Q6CBN1 1-600)
# T1 sequence: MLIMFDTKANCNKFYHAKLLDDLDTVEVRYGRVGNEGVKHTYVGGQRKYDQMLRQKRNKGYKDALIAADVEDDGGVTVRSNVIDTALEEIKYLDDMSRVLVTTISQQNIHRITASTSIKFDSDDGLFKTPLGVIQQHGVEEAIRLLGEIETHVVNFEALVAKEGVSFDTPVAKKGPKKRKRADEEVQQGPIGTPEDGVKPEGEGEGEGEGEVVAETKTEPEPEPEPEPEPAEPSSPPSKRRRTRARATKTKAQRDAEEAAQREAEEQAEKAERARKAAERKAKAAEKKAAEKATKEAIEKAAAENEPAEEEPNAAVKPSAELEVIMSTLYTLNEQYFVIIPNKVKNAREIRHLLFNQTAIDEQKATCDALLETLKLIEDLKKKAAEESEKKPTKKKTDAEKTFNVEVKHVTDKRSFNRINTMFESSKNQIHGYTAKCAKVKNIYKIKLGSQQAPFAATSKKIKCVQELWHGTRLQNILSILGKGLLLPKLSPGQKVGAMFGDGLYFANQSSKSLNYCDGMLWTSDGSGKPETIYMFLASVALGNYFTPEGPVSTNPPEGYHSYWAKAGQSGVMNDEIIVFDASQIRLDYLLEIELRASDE
# B1: dsTEL probe (YlipTEL_G/YlipTEL_C) (dsDNA)
# DNA 1: TTAGTCAGGGTTAGTCAGGG
# DNA 2: CCCTGACTAACCCTGACTAA
# Target: T1, Pyl1p
# Assay: EMSA
binder,measurement,value
B1,binding result,binds
